The record followed here is doi:10.1101/2025.11.23.690026, “A systematic interactome of SET1C expands its functional landscape and identifies candidate regulatory connections” (bioRxiv, 2025).

The target of the experiment is T1, reconstituted SET1C (S. cerevisiae, UniProt P38827 1-1080; P39706 1-426; P36104 1-329; P38123 1-315; P43132 1-505; Q03323 …).
T1 construct: Set1, S. cerevisiae (FLAG-Set1); Swd1, untagged subunit; Swd2, untagged subunit; Swd3, untagged subunit; Bre2, untagged subunit; Sdc1, untagged subunit; Spp1, untagged subunit; Shg1, untagged subunit; also called full-length SET1C; purified SET1C; source: Sf9, coinfected with baculoviruses, purified (M2 agarose); copies: + + + + + + +
Briefly: pull-down; GST-tagged Snf2 fragments (250 nM) with SET1C or C762SET1C (25 nM) on glutathione-Sepharose 4B, 0.2 mg/ml BSA, 20 mM Tris-Cl pH 7.9, 150 mM NaCl, 0.1% NP-40, 4 C, 3 hours; immunoblot. The following applies: both partners purified.

B1: GST-Snf2C-AT-hook (domain or fragment, S. cerevisiae, UniProt P22082 1384-1547, looked up)
chain: ARKQRTKKEDKSEAIDGNGEIKGENIDADNDGPRINNISAEDRADTDLAMNDDDFLSKKRKAGRPRGRPKKVKLEGSENSEPPALESSPVTGDNSPSEDFMDIPKPRTAGKTSVKSARTSTRGRGRGRGRGRGRGRGRGRPPKARNGLDYVRTPAAATSPIDIR
notes: Snf2, S. cerevisiae, AT-hook region 1384-1547; also called Snf2-AT-hook; GST-Snf2-AT-hook; source: recombinant, purified GST fusion (E. coli BL21 by the general methods)
For the molecule B1, the binding result is reported as “binds”.
